Reference: the supplement of paper PMC7877785
± gives the uncertainty stated by the source.

Assay: self-splicing fitness, log relative to wild type (ln ratio); higher = more splicing; Tetrahymena group I intron in knt gene, E. coli kanamycin selection, DiMSum; sequences stand for … in CUCUCU…GGAGGGAAAAGUUAUCAGGCAUGCACCUGGUAGCUAGUCUUUAAACCAAUAGAUUGCAUCGGUUUAAAAGGCAAGACCGUCAAAUUGCGGGAAAGGGGUCAACAGCCGUUCAGUACCAAGUCUCAGGGGAAACUUUGAGAUGGCCUUGCAAAGGGUAUGGUAAUAAGCUGACGGACAUGGUCCUAACCACGCAGCCAAGUCCUAAGUCAACAGAUCUUCUGUUGAUAUGGAUGCAGUUCACAGACUAAAUGUCGGUCGGGGAAGAUGUAUUCUUCUCAUAAGAUAUAGUCGGACCUCUCCUUAAUGGGAGCUAGCGGAUGAAGUGAUGCAACACUGGAGCCGCUGGGAACUAAUUUGUAUGCGAAAGUAUAUUGAUUAGUUUUGGAGUACUCGUGGUCG
In short: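 Colonies from six replicate transformations of E. coli BL21(DE3) were pooled and amplicon-sequenced on an Illumina HiSeq 2500. The library placed an intron with all eight P1ex-region nucleotides randomised inside the knt kanamycin-resistance gene on pET-22b(+), and cells grew overnight at 37°C or 30°C on LB agar with or without 25 μg/mL kanamycin (plus 100 μg/mL carbenicillin, 50 μM IPTG, 0.2% rhamnose). Fitness is the DiMSum error-weighted combination of wild-type-normalised replicate fold changes, kanamycin versus none.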

Sequence | self-splicing fitness (ln) (30 °C) | self-splicing fitness (ln) (37 °C)
ACGGAGCAAUAUUACGCGUG | -2.24 ± 0.12 | -0.943 ± 0.11
ACGGAGCAAUAUUACGCUCG | -1.67 ± 0.14 | -1.01 ± 0.16
ACGGAGCAAUAUUACGGAAG | -4.44 ± 0.46 | -1.89 ± 0.46
ACGGAGCAAUAUUACGGAGA |  | -2.01 ± 0.46
ACGGAGCAAUAUUACGGCGU | -2.38 ± 0.2 | -1.48 ± 0.19
ACGGAGCAAUAUUACGGGCA | -2.06 ± 0.42 | 
ACGGAGCAAUAUUACGGGCC | -2.53 ± 0.48 | -1.06 ± 0.4
ACGGAGCAAUAUUACGGGUC |  | -2.58 ± 0.38
ACGGAGCAAUAUUACGUAUU | -3.44 ± 0.48 | 
ACGGAGCAAUAUUACGUCCC | -1.47 ± 0.25 | -0.893 ± 0.2
ACGGAGCAAUAUUACGUGUU | -3.23 ± 0.13 | -2.56 ± 0.16
ACGUAGCAAUAUUACGAGGC |  | -2.11 ± 0.39
ACGUAGCAAUAUUACGAUAU | -1.39 ± 0.1 | -1.04 ± 0.15
ACGUAGCAAUAUUACGCGAG | -3.43 ± 0.19 | -0.232 ± 0.11
ACGUAGCAAUAUUACGCGGU | -3.63 ± 0.16 | -2.33 ± 0.17
ACGUAGCAAUAUUACGCGUU |  | -2.49 ± 0.24
ACGUAGCAAUAUUACGCUCU | -0.479 ± 0.12 | -0.414 ± 0.15
ACGUAGCAAUAUUACGCUGU | -2.65 ± 0.17 | -2.34 ± 0.21
ACGUAGCAAUAUUACGCUUG | -1.26 ± 0.083 | -1.28 ± 0.093
ACGUAGCAAUAUUACGGAGA | -3.36 ± 0.44 | -2.08 ± 0.24
ACGUAGCAAUAUUACGGCUA | -1.9 ± 0.12 | -2.26 ± 0.18
ACGUAGCAAUAUUACGGGGC | -4.11 ± 0.14 | -2.73 ± 0.12
ACGUAGCAAUAUUACGGGUG | -2.67 ± 0.086 | -1.18 ± 0.085
ACGUAGCAAUAUUACGGUCG | -1.23 ± 0.093 | -0.666 ± 0.12
ACGUAGCAAUAUUACGGUCU | -0.728 ± 0.078 | -0.139 ± 0.097

Sequence | self-splicing fitness (ln) (30 °C) | self-splicing fitness (ln) (37 °C)
ACGUAGCAAUAUUACGUCCG | -1.63 ± 0.12 | -0.705 ± 0.11
ACGUAGCAAUAUUACGUCGC | -3.64 ± 0.35 | -1.91 ± 0.27
ACGUAGCAAUAUUACGUUUA | -2.63 ± 0.15 | -2.73 ± 0.17
ACUAAGCAAUAUUACGAACA | -1.86 ± 0.18 | -0.417 ± 0.19
ACUAAGCAAUAUUACGAAUC | -3.41 ± 0.21 | -1.05 ± 0.17
ACUAAGCAAUAUUACGACAC | -0.549 ± 0.1 | -0.813 ± 0.13
ACUAAGCAAUAUUACGAUCU | -0.809 ± 0.092 | 0.314 ± 0.1
ACUAAGCAAUAUUACGAUGC | -1.53 ± 0.091 | -0.792 ± 0.11
ACUAAGCAAUAUUACGCAGU | -4.72 ± 0.28 | -3.25 ± 0.46
ACUAAGCAAUAUUACGCAUC | -3.13 ± 0.28 | -1.54 ± 0.2
ACUAAGCAAUAUUACGCCCA | -0.779 ± 0.11 | -0.482 ± 0.13
ACUAAGCAAUAUUACGCCGA | -1.86 ± 0.18 | -0.197 ± 0.16
ACUAAGCAAUAUUACGCCUC | -2.41 ± 0.21 | -1.64 ± 0.34
ACUAAGCAAUAUUACGCGAG | -1.77 ± 0.082 | -0.355 ± 0.089
ACUAAGCAAUAUUACGCGAU | -2.98 ± 0.15 | -1.82 ± 0.2
ACUAAGCAAUAUUACGCGUC | -4.43 ± 0.41 | -2.1 ± 0.22
ACUAAGCAAUAUUACGGCGA | -0.131 ± 0.1 | -0.411 ± 0.13
ACUAAGCAAUAUUACGGCGU | -0.894 ± 0.078 | -0.0271 ± 0.1
ACUAAGCAAUAUUACGGGGU | -4.13 ± 0.28 | -2.2 ± 0.19
ACUAAGCAAUAUUACGGGUA | -1.77 ± 0.11 | -0.856 ± 0.11
ACUAAGCAAUAUUACGUCAG | -2.63 ± 0.16 | -1.57 ± 0.23
ACUAAGCAAUAUUACGUGCG | -0.891 ± 0.086 | -0.294 ± 0.098
ACUAAGCAAUAUUACGUGGA | -2.99 ± 0.14 | -1.49 ± 0.11
ACUAAGCAAUAUUACGUUGU | -3.58 ± 0.16 | -2.78 ± 0.18
ACUCAGCAAUAUUACGAAAA | -1.32 ± 0.11 | -1.36 ± 0.16

Sequence | self-splicing fitness (ln) (30 °C) | self-splicing fitness (ln) (37 °C)
ACUCAGCAAUAUUACGAACC | -0.758 ± 0.097 | -0.326 ± 0.1
ACUCAGCAAUAUUACGAAUG | -1.17 ± 0.11 | -0.992 ± 0.15
ACUCAGCAAUAUUACGACGC | -0.134 ± 0.074 | 0.447 ± 0.088
ACUCAGCAAUAUUACGACUA | -0.633 ± 0.12 | -0.128 ± 0.12
ACUCAGCAAUAUUACGAGCC | -1.32 ± 0.079 | -0.908 ± 0.11
ACUCAGCAAUAUUACGAGCG | -0.49 ± 0.061 | -0.185 ± 0.071
ACUCAGCAAUAUUACGAUGU | -1.35 ± 0.064 | -0.811 ± 0.074
ACUCAGCAAUAUUACGAUUG | -2.74 ± 0.084 | -1.59 ± 0.1
ACUCAGCAAUAUUACGCACU | -0.199 ± 0.064 | 0.205 ± 0.079
ACUCAGCAAUAUUACGCGAG | -2.93 ± 0.2 | -1.21 ± 0.17
ACUCAGCAAUAUUACGCGGA | -2.79 ± 0.16 | -3.35 ± 0.27
ACUCAGCAAUAUUACGCUAG | -1.74 ± 0.094 | -1.3 ± 0.11
ACUCAGCAAUAUUACGCUGG | -2.43 ± 0.12 | -2.86 ± 0.22
ACUCAGCAAUAUUACGGAAC | -1.64 ± 0.12 | -1.76 ± 0.19
ACUCAGCAAUAUUACGGAGG | -2.28 ± 0.13 | -1.35 ± 0.17
ACUCAGCAAUAUUACGUAAA | -1.36 ± 0.069 | -0.79 ± 0.09
ACUCAGCAAUAUUACGUAAC | -2.79 ± 0.14 | -1.2 ± 0.16
ACUCAGCAAUAUUACGUACA | -1.74 ± 0.1 | -0.876 ± 0.1
ACUCAGCAAUAUUACGUCAU | -1.29 ± 0.068 | -0.61 ± 0.088
ACUCAGCAAUAUUACGUCCU | -1.18 ± 0.094 | 0.185 ± 0.11
ACUCAGCAAUAUUACGUUUU | -2.1 ± 0.048 | -0.817 ± 0.061
ACUGAGCAAUAUUACGACAG | -0.882 ± 0.091 | -0.105 ± 0.12
ACUGAGCAAUAUUACGACGG | -1.08 ± 0.1 | -0.161 ± 0.13
ACUGAGCAAUAUUACGAGUA |  | -1.6 ± 0.2
ACUGAGCAAUAUUACGCAAC | -3.87 ± 0.31 | 

Sequence | self-splicing fitness (ln) (30 °C) | self-splicing fitness (ln) (37 °C)
ACUGAGCAAUAUUACGCAUG | -1.95 ± 0.14 | -2.23 ± 0.16
ACUGAGCAAUAUUACGCCUC | -2.32 ± 0.31 | 
ACUGAGCAAUAUUACGCGUC | -4.21 ± 0.29 | -2.35 ± 0.21
ACUGAGCAAUAUUACGCUGA | -2.19 ± 0.47 | -1.2 ± 0.34
ACUGAGCAAUAUUACGCUUC | -3.57 ± 0.24 | -3.1 ± 0.28
ACUGAGCAAUAUUACGGAUG | -2.58 ± 0.12 | -1.67 ± 0.14
ACUGAGCAAUAUUACGGAUU | -3.91 ± 0.27 | -1.59 ± 0.16
ACUGAGCAAUAUUACGGCGA | -1.87 ± 0.099 | -1.19 ± 0.11
ACUGAGCAAUAUUACGGCUU | -3.22 ± 0.21 | -3.27 ± 0.4
ACUGAGCAAUAUUACGGGGC | -4.03 ± 0.33 | -1.57 ± 0.22
ACUGAGCAAUAUUACGUAUG | -3.4 ± 0.15 | -1.08 ± 0.14
ACUGAGCAAUAUUACGUCCA | -3.1 ± 0.36 | -2 ± 0.4
ACUGAGCAAUAUUACGUCCG | -2.79 ± 0.17 | -1.58 ± 0.17
ACUGAGCAAUAUUACGUGGA | -2.94 ± 0.2 | -2.88 ± 0.2
ACUGAGCAAUAUUACGUUCA | -3.87 ± 0.28 | -1.55 ± 0.2
ACUGAGCAAUAUUACGUUGA | -3.25 ± 0.15 | -2.48 ± 0.15
ACUGAGCAAUAUUACGUUUG | -3.97 ± 0.21 | -2.53 ± 0.18
ACUGAGCAAUAUUACGUUUU | -4.25 ± 0.26 | -2.07 ± 0.18
ACUUAGCAAUAUUACGACUA | -1.81 ± 0.17 | -0.513 ± 0.14
ACUUAGCAAUAUUACGACUG | -1.53 ± 0.099 | -0.694 ± 0.16
ACUUAGCAAUAUUACGAGUG | -1.17 ± 0.12 | -1.58 ± 0.13
ACUUAGCAAUAUUACGAUCC | -1.9 ± 0.15 | -0.595 ± 0.2
ACUUAGCAAUAUUACGCCAA | -3.19 ± 0.29 | -2.17 ± 0.28
